Experimental findings from article doi:10.1101/2022.05.11.22274678 (2022) are described below.

The target in test [1] is T1, insulin B chain peptide on HLA-DQA1*05:01 / HLA-DQB1*03:02 (human).
T1 peptide: SHLVEALYLVCGERG
Put plainly: activation reporter or marker.

The target in test [2] is T2, transketolase (TKT) from Clostridium leptum, TKT peptide 8 peptide on HLA-DQA1*05:01 / HLA-DQB1*03:02 (human).
T2 peptide: GHSVEALYCILADRG
Put plainly: activation reporter or marker.

B1: GSE.166H9 (TCR)
alpha TRAV3 TRAJ21 CDR3: CAVMYNFNKFYF
beta TRBV12-3 TRBJ2-5 CDR3: CASSLGGRETQYF
Regarding B1, the binding result in test [1] and in test [2] was “recognises” throughout.
